Experimental data reported in US20180346569A1 (LYVGEN BIOPHARMA, published 2018).

What was measured:
[1] = target: T1, rhesus monkey PD-1-His (Sino Biological Inc. Cat#90305-KO8H-100) (rhesus monkey, UniProt B0LAJ2 25-170); assay: ELISA, antibody coated at 1 ug/ml, PD-1-His titrated, detected with anti-His-HRP
T1 construct: Bought protein; also called Rehsus monkey PD-1
Experimental: (§1) The PD-1 antibody sample was diluted in PBS to 1 ug/ml and was coated in an ELISA plate (Costar, Cat#3590, high binding) 100 ul/well, 4° C. overnight. The plate was decanted and blocking solution (eBioscience, ELISA/ELISPOT Diluent, Cat#00-4202-55) was added 200 ul/well. After 1 hour incubation at room temperature, the plate was washed with PBST three times. […] The plate was incubated 1 hour at room temperature and then washed four times with PBST. Anti-His-HRP (Genscript Cat#A00612) at 1:2000 dilution was added to the plate 100 ul/well. The plate was incubated 1 hour at room temperature followed by washing with PBST four times. The TMB substrate solution was added 100 ul/well. Let the color develop for 15 minutes and add 50 ul/well 1M H2SO4 to terminate the reaction. Absorbance at 450 nm was determined in FlexStation 3 ELISA reader.

[2] = target: T2, Human PD-1 (captured on an anti-His IgG Biacore chip) (human, UniProt Q15116 25-167); assay: SPR (Biacore), human PD-1 captured on anti-His IgG chip, SSI-361 injected at 3.125-50 nM, 1:1 model
T2 construct: It may be the same Sino Biological PD-1-His protein as m3; also called PD-1 antigen; not shown: His tag implied by capture on anti-His IgG
Experimental: Flow cells of a Series S CMS sensor chip (GE Healthcare Life Sciences) were activated with freshly mixed 50 mmol/L NHS and 200 mmol/L EDC for 360 seconds (10 μL/min). Then, anti-His IgGs, in 10 mmol/L NaAC (pH 5.0) was injected onto the activated flow cell (10 μL/min) for 300 seconds (10 μL/min) with HBS-EP+(10 mM HEPES, 150 mM NaCl, 3 mM EDTA and 0.05% P20, pH 7.4) as the running buffer. The remaining active coupling sites were blocked with a 420 second injection of 1 mol/L ethanolamine (10 μL/min). This procedure was repeated for 2 times to immobilized protein on 2 flow cells individually. Low flow rate overnight was maintained for the equilibrium of the immobilized proteins. Human PD-1 was captured on a flow cell 2 (10 μL/min). […] Flow cell 1 without captured antigen was used as reference flow cell. To remove the tested antibody and antigen from the surface, 10 mM glycine-HCl pH 1.5 was injected for 60s (10 μL/min, flow cell 1-2). The above procedures were repeated for each concentration of serially diluted tested antibody. The KD value (Table 1) was evaluated using Biacore X100 evaluation software 2.0 with 1:1 interaction binding model. Flow cell 1 was used as reference flow cell for data subtraction.

[3] = target: T3, Cyno PD-1-Fc tag (Sino Biological Inc. Cat#90311-CO2H) (cynomolgus monkey, UniProt B0LAJ3 25-170); assay: ELISA, Cyno PD-1-Fc coated at 2 ug/ml, antibody titrated, detected with anti-human Ig kappa-HRP
T3 construct: Bought Fc fusion; also called PD-1 of cynomolgus monkey; Cynomolgus monkey PD-1
Experimental: To determine binding to PD-1 of cynomolgus monkey, Cyno PD-1—Fc tag (Sino Biological Inc. Cat#90311-CO2H) was diluted in PBS to 2 ug/ml, and 100 ul/well was used to coat an ELISA plate (Costar, Cat#3590, high binding), 4° C. overnight. The plate was decanted and blocking solution (eBioscience, ELISA/ELISPOT Diluent, Cat#00-4202-55) was added, 200 ul/well. After 1 hour incubation at room temperature, the plate was washed with PBST three times. The testing PD-1 antibody was diluted in blocking buffer to 0, 0.001, 0.01, 0.1, 1.10 ug/ml and added to the plate, 100 ul/well. The plate was incubated 1 hour at room temperature and then washed four times with PBST. Anti-Hu IgG-HRP (goat-anti-human Ig kappa-HRP, Millipore, Cat# AP502P) at 1:4000 dilution was added to the plate, 100 ul/well. The plate was incubated 1 hour at room temperature followed by washing with PBST four times. The TMB substrate solution was added 100 ul/well. The color developed for 15 minutes and 50 ul/well of 1M H2SO4 was added to terminate the reaction. Absorbance at 450 nm was determined in FlexStation 3 ELISA reader.

[4] = target: T4, Human PD-1-His tag protein (Sino Biological Inc. Cat#10377-H08H-100) (human, UniProt Q15116 25-167); assay: ELISA, antibody coated at 1 ug/ml, PD-1-His titrated, detected with anti-His-HRP; antibody coated on the plate, human PD-1-His titrated
T4 construct: Bought protein; not shown: His tag
Experimental: as §1

[5] = target: T4, Human PD-1-His tag protein (Sino …); assay: ELISA, antibody coated at 1 ug/ml, human PD-1-His titrated (the concentration axis is that of PD-1-His), detected with anti-His-HRP
Experimental: as §1

[6] = target: T1, rhesus monkey PD-1-His (Sino Biological …); assay: ELISA, antibody coated at 1 ug/ml, rhesus monkey PD-1-His titrated (the concentration axis is that of PD-1-His), detected with anti-His-HRP
Experimental: as §1

T2 sequence (Q15116 25-167): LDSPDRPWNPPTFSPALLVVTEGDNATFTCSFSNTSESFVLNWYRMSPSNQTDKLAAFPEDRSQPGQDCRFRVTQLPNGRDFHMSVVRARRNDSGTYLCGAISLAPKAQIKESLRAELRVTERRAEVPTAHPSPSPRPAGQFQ
T3 sequence (B0LAJ3 entry or part of it limits assumed): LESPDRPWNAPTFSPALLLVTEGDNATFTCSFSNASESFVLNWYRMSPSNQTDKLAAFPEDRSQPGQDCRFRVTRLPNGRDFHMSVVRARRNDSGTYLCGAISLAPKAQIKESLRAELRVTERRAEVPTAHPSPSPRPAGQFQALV
T4 sequence (Q15116 25-167 limits assumed): as the sequence (Q15116 25-167) above
T1 sequence (B0LAJ2 entry or part of it limits assumed): as the sequence (B0LAJ3 entry or part of it limits assumed) above, with A10P, Q67R, R75Q counted along it

EC50 [1]: 0.39 nM
Kd [2]: 5.07 nM
koff [2]: 0.00117 s⁻¹
kon [2]: 230000 M⁻¹ s⁻¹
EC50 [3]: 0.08 nM
EC50 (read off the curve) [3]: ~0.01 µg/mL
EC50 [4]: 0.33 nM
EC50 (read off the curve) [5]: ~0.03 µg/mL
EC50 (read off the curve) [6]: ~0.05 µg/mL
B1: SSI-361 (humanized SHB-617 in human IgG4 S228P/kappa) (antibody, V domains shown)
VH: QVTLKESGPALVKPTQTLTLTCTFSGFSLSTSGTCVSWIRQPPGKALEWLATICWEDSKGYNPSLKSRLTISKDTSKNQAVLTMTNMDPVDTATYYCARREDSGYFWFPYWGQGTLVTVSS
VL: NIQMTQSPSSLSASVGDRVTITCKAGQNVNNYLAWYQQKPGKAPKVLIFNANSLQTGVPSRFSGSGSGTDFTLTISSLQPEDFATYYCQQYNSWTTFGGGTKVEIKR
notes: Full human IgG4 (hinge S228P, EU numbering)/kappa, expressed in HEK293 or CHO cells; also called PD-1 Ab01
